We go through eleven compounds from patent US11612667B2, “Enhanced in vivo targeting of radiolabelled peptides with the means of enzyme inhibitors” (Advanced Accelerator Applications USA, Inc., priority 2011, dated 2023).

Non-standard residues stand in square brackets, D forms with d. Residues, ends and D or L forms follow the SMILES beside them. *: point of attachment. DOTA = O=C(O)CN1CCN(CC(=O)O)CCN(CC(=O)*)CCN(CC(=O)O)CC1; Nle = CCCC[C@H](N)C(=O)O; X1 = NCCNCC(CNCCN)C(=O)*; AEEA = NCCOCCOCC(=O)O; βAla = NCCC(=O)O; For = O=C*

Details of data set [1]: species or system Swiss albino mice. The following applies: mouse, in vivo, 5 min. The procedure: Whole blood was collected 5 min postinjection (pi), blood cells were removed and major proteins were precipitated and then the supernatant was analyzed by RP-HPLC coupled to a gamma detector.
Alternatively, the dual NEP and ACE inhibitor racecadotril (race; 2.5 mg) was ip injected 45-60 min prior to radioligand injection and the same procedure was followed as described above.
To test the in vivo stability, ^111In-DOTA-MG11 was injected in the tail vein of Swiss albino mice and 5 min afterwards blood was collected, blood cells were removed and major proteins were precipitated and then the supernatant was analyzed by RP-HPLC coupled to a gamma detector. As shown in the radiochromatogram of FIG. 3A, the major part of ^111In-DOTA-MG11 was consumed during this period (<5% intact peptide still detected), in agreement with previous reports. Further, ^111In-DOTA-MG11 was co-injected together with PA or injected 1 h after ip injection of race (2.5 mg) in more mice and the same protocol was followed as above. Amazingly, the percentage of ^111In-DOTA-MG11 found intact in the blood of the PA-treated mice was raised from <5% to 75% and in the race-pretreated mice to 73%.
For ex vivo blood analysis, [^99mTc]Demotensin 6 was injected in the tail vein of Swiss albino mice and blood collected 5 min thereafter was analyzed as previously described. The effect of PA on stability was studied by co-injection of PA along with [^99mTc]Demotensin 6. Furthermore, a PA dose study was performed with the PA injected dose ranging from 300 μg down to 0.03 μg and results are summarized in FIG. 4A.
Additional groups of radiopeptides with relevance for nuclear medicine applications have been studied for their in vivo stability. Radiopeptides were injected in the tail vein of healthy mice, either alone, or with a NEP inhibitor (PA—300 μg), or with a NEP (PA—300 μg) and an ACE (Lis—300 μg) inhibitor mixture; alternatively, another NEP inhibitor prodrug (race—2.5 mg) was ip injected in the animals ˜45 min prior to radioligand injection. Blood was collected 5 min afterwards, and analyzed by RP-HPLC after suitable preparation, as previously described.

The conditions of data set [2]: mouse; cited from earlier work.
Data set [3] relates to human prostate adenocarcinoma PC-3 xenografts (GRPR+). Also on record: species or system SCID mice. As to conditions: mouse, in vivo; for uptake in PC-3 tumor: SCID, 4 h. The procedure:
FIG. 6C: Biodistribution of [^99mTc]SAR-NC1 in SCID mice bearing human prostate adenocarcinoma PC-3 xenografts (GRPR^+) at 4 h pi.
In FIG. 6B and FIG. 7B, the biodistribution of [^99mTc]SAR-NC1 and [^99mTc]SAR-NC6 in SCID mice bearing human prostate adenocarcinoma PC-3 xenografts (GRPR^+) at 4 h respectively, after injection of the radioligand alone or with co-injection of PA (300 μg) are shown.
It is interesting to note that with co-injection of the blocker and PA tumor values were minimal (0.69±0.03% ID/g) showing that PA provoked a GRPR-mediated increase in tumor uptake.
The effect of PA-induced stabilization of [^99mTc]Demobesin 1 on tumor uptake is illustrated in FIG. 10B, showing the biodistribution at 4 h pi after injection of [^99mTc]Demobesin 1 in SCID mice bearing human PC-3 xenografts (GRPR^+) (control), or with PA (300 μg).

Data set [4] concerns WiDr tumors (hNTS1+). The data set is described as follows: Biodistribution / tumor uptake in SCID mice bearing WiDr tumors (hNTS1+). The following applies: 4 h pi. The method, then: FIG. 4H: Biodistribution of [^99mTc]Demotensin 6 in SCID mice bearing WiDr tumors (hNTS1^+) at 4 h pi. Bars represent average uptake as mean % injected dose per gram (% ID/g) of at least 4 animals with standard deviation (control at 4 h 2nd bars); three additional groups of animals received either excess NT(1-13) and PA (100 μg blocker and 300 μg PA—first bars), or PA (300 μg PA—3rd bars) or PA and Lis (300 μg PA+250 μg Lis—4th bars). Bl=blood, Li=liver, He=heart, Ki=kidneys, St=stomach, In=intestines, Sp=spleen, Mu=muscle, Lu=lungs, Pa=pancreas, Fe=femur and Tu=WiDr tumor.
FIG. 5H: Biodistribution of [^99mTc]Demotensin 1 in SCID mice bearing WiDr tumors (hNTS1+) at 4 h pi. Bars represent average uptake as mean % injected dose per gram (% ID/g) of at least 4 animals with standard deviation (control at 4 h 2nd bars); three additional groups of animals received either excess NT and PA (100 μg and 300 μg PA, respectively—first bars), or PA (300 μg PA—3rd bars) or PA and Lis (300 μg PA+300 μg Lis—4th bars). Bl=blood, Li=liver, He=heart, Ki=kidneys, St=stomach, In=intestines, Sp=spleen, Mu=muscle, Lu=lungs, Pa=pancreas, Fe=femur and Tu=WiDr tumor.
In FIG. 4B the effects of such regimens on SCID mice bearing the human colon adenocarcinoma WiDr tumor (a hNTS1R^+ tumor) on enhancing in vivo tumor targeting are presented.
In FIG. 5B the effects of above regimens on SCID mice bearing WiDr tumors (hNTS1R^+) on enhancing in vivo tumor targeting are shown.

`CCCC[C@H](NC=O)C(=O)N[C@@H](CC(C)C)C(=O)N[C@@H](Cc1ccccc1)C(=O)N[C@@H](CCCC)C(=O)N[C@@H](Cc1ccc(O)cc1)C(=O)N[C@@H](CCCCNC(=O)CN1CCN(CC(=O)O)CCN(CC(=O)O)CCN(CC(=O)O)CC1)C(=O)O` [[111In] CTP-1, For-Nle-Leu-Phe-Nle-Tyr-Lys(DOTA)-OH, metal not drawn] (For-[Nle]LF[Nle]YK(DOTA)-OH): the “percentage of parent peptide remaining intact” value in data set [1] was found to be 2%.

Consider `CCCC[C@H](NC(=O)[C@H](CO)NC(=O)[C@H](Cc1ccc(O)cc1)NC(=O)[C@H](CO)NC(=O)CN1CCN(CC(=O)O)CCN(CC(=O)O)CCN(CC(=O)O)CC1)C(=O)N[C@@H](CCC(=O)O)C(=O)N[C@@H](Cc1c[nH]cn1)C(=O)N[C@@H](Cc1ccccc1)C(=O)N[C@@H](CCCNC(=N)N)C(=O)N[C@@H](Cc1c[nH]c2ccccc12)C(=O)NCC(=O)N[C@@H](CCCCN)C(=O)N1CCC[C@H]1C(=O)N[C@H](C(N)=O)C(C)C` [[111In]MSH-1, metal not drawn], for which the “percentage of parent peptide remaining intact” value in data set [1] turned out to be 52%.

For `CCCC[C@H](NC(=O)[C@H](CO)NC(=O)[C@H](Cc1ccc(O)cc1)NC(=O)[C@H](CO)NC(=O)CN1CCN(CC(=O)O)CCN(CC(=O)O)CCN(CC(=O)O)CC1)C(=O)N[C@@H](CCC(=O)O)C(=O)N[C@@H](Cc1cnc[nH]1)C(=O)N[C@H](Cc1ccccc1)C(=O)N[C@@H](CCCN=C(N)N)C(=O)N[C@@H](Cc1c[nH]c2ccccc12)C(=O)NCC(=O)N[C@@H](CCCCN)C(=O)N1CCC[C@H]1C(=O)N[C@H](C(N)=O)C(C)C` [[111In]MSH-2, (DOTA)Ser-Tyr-Ser-Nle-Glu-His-DPhe-Arg-Trp-Gly-Lys-Pro-Val-NH2, metal not drawn], in data set [1], the “percentage of parent peptide remaining intact” value worked out at 77%.

As for `CSCC[C@H](NC(=O)[C@H](CC(C)C)NC(=O)CNC(=O)[C@H](Cc1ccccc1)NC(=O)[C@H](Cc1ccccc1)NC(=O)[C@H](CCC(N)=O)NC(=O)[C@H](CCC(N)=O)NC(=O)[C@@H]1CCCN1C(=O)[C@H](CCCCN)NC(=O)[C@@H]1CCCN1C(=O)[C@H](CCCNC(=N)N)NC(=O)CN1CCN(CC(=O)O)CCN(CC(=O)O)CCN(CC(=O)O)CC1)C(N)=O` [[111In]SP-1, metal not drawn], in data set [1], the “percentage of parent peptide remaining intact” value came to 7%.

As for `CC(C)C[C@H](NC(=O)CNC(=O)[C@H](Cc1ccccc1)NC(=O)[C@H](Cc1ccccc1)NC(=O)[C@H](CCC(N)=O)NC(=O)[C@H](CCC(N)=O)NC(=O)[C@@H]1CCCN1C(=O)[C@H](CCCCN)NC(=O)[C@@H]1CCCN1C(=O)[C@H](CCCNC(=N)N)NC(=O)CN1CCN(CC(=O)O)CCN(CC(=O)O)CCN(CC(=O)O)CC1)C(=O)N[C@@H](CCS(C)(=O)=O)C(N)=O` [[111In]SP-2, metal not drawn], the “percentage of parent peptide remaining intact” value in data set [1] is listed as 24%.

For `CC(C)C[C@H](NC(=O)CN(C)C(=O)[C@H](Cc1ccccc1)NC(=O)[C@H](Cc1ccccc1)NC(=O)[C@H](CCC(N)=O)NC(=O)[C@H](CCC(N)=O)NC(=O)[C@@H]1CCCN1C(=O)[C@H](CCCCN)NC(=O)[C@@H]1CCCN1C(=O)[C@H](CCCNC(=N)N)NC(=O)CN1CCN(CC(=O)O)CCN(CC(=O)O)CCN(CC(=O)O)CC1)C(=O)N[C@@H](CCS(C)(=O)=O)C(N)=O` [[111In]SP-3, metal not drawn], the “percentage of parent peptide remaining intact” value in data set [1] is given as 51%.

In the case of `CCNC(=O)[C@H](CC(C)C)NC(=O)[C@H](Cc1c[nH]cn1)NC(=O)CNC(=O)[C@@H](NC(=O)[C@H](C)NC(=O)[C@H](Cc1c[nH]c2ccccc12)NC(=O)[C@H](CCC(N)=O)NC(=O)[C@@H](Cc1ccccc1)NC(=O)COCC(=O)Nc1ccc(CC(CNCCN)CNCCN)cc1)C(C)C` [[^99mTc]Demobesin 1, metal not drawn], in data set [2], the “in vitro stability in plasma” value is listed as “high in vitro stability”. Also, in data set [3], the “uptake in PC-3 tumor” value worked out at 12.73±0.93 % ID/g.

Take `CC[C@H](C)[C@H](NC(=O)[C@H](Cc1ccc(O)cc1)NC(=O)[C@@H]1CCCN1C(=O)[C@H](CCCN=C(N)N)NC(=O)[C@H](CCCN=C(N)N)NC(=O)CNC(=O)C(CNCCN)CNCCN)C(=O)N[C@@H](CC(C)C)C(=O)O` [[^99mTc]Demotensin 1, ^99mTc-N4-Gly-Arg-Arg-Pro-Tyr-Ile-Leu-OH, metal not drawn] (X1-GRRPYIL-OH): the “uptake in WiDr tumor” value was 4.58±0.47 % ID/g in data set [4] (PA 300 μg); 7.71±1.19 % ID/g in data set [4] (PA 300 μg + Lis (250 μg for Demotensin 6, 300 μg for Demotensin 1)); 1.20±0.21 % ID/g in data set [4] (non-treated controls). For the same compound, in data set [4] (excess NT 100 μg blocker + 300 μg PA), the “uptake in WiDr tumor, blockade” value was 0.23±0.09 % ID/g.

As to `CSCC[C@H](NC(=O)[C@H](CC(C)C)NC(=O)[C@H](Cc1c[nH]cn1)NC(=O)CNC(=O)[C@@H](NC(=O)[C@H](C)NC(=O)[C@H](Cc1c[nH]c2ccccc12)NC(=O)[C@H](Cc1c[nH]cn1)NC(=O)[C@H](CC(N)=O)NC(=O)CNC(=O)C(CNCCN)CNCCN)C(C)C)C(N)=O` [[^99mTc]SAR-NC1, metal not drawn], in data set [1], the “percentage of parent peptide remaining intact” value amounted to 30%. Besides, the “uptake in PC-3 tumor” value in data set [3] came out at 6.51±1.91 % ID/g.

`CC(C)C[C@H](NC(=O)C[C@H](O)[C@H](CC(C)C)NC(=O)[C@H](Cc1c[nH]cn1)NC(=O)CNC(=O)[C@@H](NC(=O)[C@H](C)NC(=O)[C@H](Cc1c[nH]c2ccccc12)NC(=O)[C@H](CCC(N)=O)NC(=O)[C@@H](Cc1ccccc1)NC(=O)CCNC(=O)CCNC(=O)CN1CCN(CC(=O)O)CCN(CC(=O)O)CCN(CC(=O)O)CC1)C(C)C)C(N)=O` [[^111In]JMV4168, [^111In]DOTA-βAla-βAla-DPhe-Gln-Trp-Ala-Val-Gly-His-Sta-Leu-NH2, metal not drawn]: in data set [3], the “uptake in PC-3 tumor” value came out at 10.22±2.40 % ID/g and the pancreas uptake result was “remained very low”.

As for `CCCC[C@H](NC(=O)[C@H](Cc1ccccc1)NC(=O)[C@H](Cc1c[nH]cn1)NC(=O)CCNC(=O)[C@@H](NC(=O)[C@H](C)NC(=O)[C@H](Cc1c[nH]c2ccccc12)NC(=O)[C@H](CCC(N)=O)NC(=O)[C@@H](Cc1ccc(O)cc1)NC(=O)COCCOCCNC(=O)CN1CCN(CC(=O)O)CCN(CC(=O)O)CCN(CC(=O)O)CC1)C(C)C)C(N)=O` [[^111In]PanSarbesin 1, ^111In-DOTA-PEG2-DTyr-Gln-Trp-Ala-Val-βAla-His-Phe-Nle-NH2, metal not drawn] ({DOTA-AEEA}-[dY]QWAV[βAla]HF[Nle]-NH2), the “percentage of parent peptide remaining intact” value in data set [1] is listed as 13%. The “uptake in PC-3 tumor” value in data set [3] came to 3.75±0.73 % ID/g.
